B1: Cell division control protein 13 (Saccharomyces cerevisiae), P32797 (parent)
chain: MDTLEEPECPPHKNRIFVSSSKDFEGYPSKAIVPVQFVALLTSIHLTETKCLLGFSNFERRGDQSQEDQYLIKLKFKDRGSERLARITISLLCQYFDIELPDLDSDSGASPTVILRDIHLERLCFSSCKALYVSKHGNYTLFLEDIKPLDLVSVISTISTKSTNSSKHSSSELISECDLNNSLVDIFNNLIEMNRDEKNRFKFVKLIHYDIELKKFVQDQQKVLSQKSKAAAINPFFVPNRLGIPYIESQNEFNSQLMTLNVDEPTTDISNMGEEMHDSADPIEDSDSSTTSSTGKYFSSKSYIQSQTPERKTSVPNNWHDDDSGSKRKRKLSFHSPNASSIRKAISYEQLSLASVGSVERLEGKIVGMNPPQFASINEFKYCTLKLYFTQLLPNVPDKVLVPGVNCIEIVIPTRERICELFGVLNCQSDKISDILLLEKPDRISVEVERILWDNDKTASPGMAVWSLKNISTDTQAQAQVQVPAQSSASIDPSRTRMSKMARKDPTIEFCQLGLDTFETKYITMFGMLVSCSFDKPAFISFVFSDFTKNDIVQNYLYDRYLIDYENKLELNEGFKAIMYKNQFETFDSKLRKIFNNGLRDLQNGRDENLSQYGIVCKMNIKVKMYNGKLNAIVRECEPVPHSQISSIASPSQCEHLRLFYQRAFKRIGESAISRYFEEYRRFFPIHRNGSHLAKLRFDEVKHEPKKSPTTPALAEHIPDLNADVSSFDVKFTDISSLLDSSARLPRPQQTHKSNTLYSCEGRIIAIEYHASDLCFHITNELPLLQTRGLAPERVLQLHIITSKNFAYFFNRSSAYLQRQPLEEKYTQLAQFLGHSFKFNITSSLTLFPDTTVALQIWCPIECTFRELQQQLAHPKVAAAPDSGSLDCAINATVNPLRLLAAQNGVTVKKEEDNDDDAGAVPTS

Variants of: B1
Conditions: with cdk1_yeast CDC28, P00546
Chain of cdk1_yeast CDC28, P00546 (P00546 whole entry, looked up): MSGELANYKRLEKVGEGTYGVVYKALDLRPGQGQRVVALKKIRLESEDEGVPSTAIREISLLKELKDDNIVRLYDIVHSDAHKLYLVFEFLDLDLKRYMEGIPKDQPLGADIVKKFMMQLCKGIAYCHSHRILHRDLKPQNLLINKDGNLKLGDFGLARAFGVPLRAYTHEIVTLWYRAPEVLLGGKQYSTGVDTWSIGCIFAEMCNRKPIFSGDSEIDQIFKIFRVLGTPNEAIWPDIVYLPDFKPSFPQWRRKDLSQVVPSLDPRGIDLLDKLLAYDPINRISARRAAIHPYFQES
With T308A;S336A the “effect of a mutation on the interaction” value was “disrupting interaction”.
T308A was tested, and the “effect of a mutation on the interaction” value was “decreasing interaction”.
